These results are taken from patent US20230365641.

Where “and” joins values, the source holds several entries; their conditions need not be identical. Identical values can stand only once.

Chain of MMP-10 protease (chain, as listed by the source): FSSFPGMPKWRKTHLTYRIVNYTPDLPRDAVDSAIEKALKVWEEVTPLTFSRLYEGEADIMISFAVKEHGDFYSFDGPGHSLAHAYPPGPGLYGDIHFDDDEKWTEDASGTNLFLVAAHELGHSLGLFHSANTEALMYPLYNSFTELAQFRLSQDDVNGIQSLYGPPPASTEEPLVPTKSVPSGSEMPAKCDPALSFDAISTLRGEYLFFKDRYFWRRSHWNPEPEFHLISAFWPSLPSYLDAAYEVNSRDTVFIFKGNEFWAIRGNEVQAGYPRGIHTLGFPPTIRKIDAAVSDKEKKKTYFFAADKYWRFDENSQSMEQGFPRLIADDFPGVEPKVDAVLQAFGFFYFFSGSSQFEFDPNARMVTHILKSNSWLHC
Chain of recombinant human MMP-9 (chain, as listed by the source): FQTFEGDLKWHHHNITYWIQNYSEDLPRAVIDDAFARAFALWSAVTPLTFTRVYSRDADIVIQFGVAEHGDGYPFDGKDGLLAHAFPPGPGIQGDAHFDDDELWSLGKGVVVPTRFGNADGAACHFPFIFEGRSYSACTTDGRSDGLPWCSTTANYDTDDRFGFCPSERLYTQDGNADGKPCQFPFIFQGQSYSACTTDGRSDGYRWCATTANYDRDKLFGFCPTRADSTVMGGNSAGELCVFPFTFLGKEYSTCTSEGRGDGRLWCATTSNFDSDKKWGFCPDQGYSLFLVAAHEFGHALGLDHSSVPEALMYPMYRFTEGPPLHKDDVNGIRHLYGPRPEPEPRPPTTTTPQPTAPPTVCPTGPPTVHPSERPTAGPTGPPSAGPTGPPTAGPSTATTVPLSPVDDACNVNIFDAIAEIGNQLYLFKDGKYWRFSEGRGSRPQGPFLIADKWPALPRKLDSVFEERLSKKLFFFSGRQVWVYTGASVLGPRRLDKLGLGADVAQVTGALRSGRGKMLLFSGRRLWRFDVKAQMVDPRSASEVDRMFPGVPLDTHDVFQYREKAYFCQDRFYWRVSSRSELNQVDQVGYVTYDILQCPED
Chain of TC24 (chain, as listed by the source, chain 1 of 3, other chains not shown): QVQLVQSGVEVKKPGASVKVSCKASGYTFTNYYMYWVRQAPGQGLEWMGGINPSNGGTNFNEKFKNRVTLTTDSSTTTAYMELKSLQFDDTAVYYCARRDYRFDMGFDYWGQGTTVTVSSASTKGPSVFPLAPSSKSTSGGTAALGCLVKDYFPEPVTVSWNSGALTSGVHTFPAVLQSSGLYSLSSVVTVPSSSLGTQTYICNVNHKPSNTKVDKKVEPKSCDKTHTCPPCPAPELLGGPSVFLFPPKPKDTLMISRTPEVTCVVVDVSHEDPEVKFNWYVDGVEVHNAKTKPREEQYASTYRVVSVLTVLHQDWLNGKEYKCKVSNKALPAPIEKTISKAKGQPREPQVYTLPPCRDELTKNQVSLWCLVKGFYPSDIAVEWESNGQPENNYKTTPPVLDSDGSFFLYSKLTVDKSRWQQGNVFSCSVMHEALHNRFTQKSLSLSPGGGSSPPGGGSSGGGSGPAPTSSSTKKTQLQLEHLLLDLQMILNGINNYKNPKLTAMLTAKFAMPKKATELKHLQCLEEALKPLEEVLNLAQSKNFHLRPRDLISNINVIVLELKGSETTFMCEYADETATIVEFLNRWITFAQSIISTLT
Chain of TC24 (chain, as listed by the source, chain 2 of 3, other chains not shown): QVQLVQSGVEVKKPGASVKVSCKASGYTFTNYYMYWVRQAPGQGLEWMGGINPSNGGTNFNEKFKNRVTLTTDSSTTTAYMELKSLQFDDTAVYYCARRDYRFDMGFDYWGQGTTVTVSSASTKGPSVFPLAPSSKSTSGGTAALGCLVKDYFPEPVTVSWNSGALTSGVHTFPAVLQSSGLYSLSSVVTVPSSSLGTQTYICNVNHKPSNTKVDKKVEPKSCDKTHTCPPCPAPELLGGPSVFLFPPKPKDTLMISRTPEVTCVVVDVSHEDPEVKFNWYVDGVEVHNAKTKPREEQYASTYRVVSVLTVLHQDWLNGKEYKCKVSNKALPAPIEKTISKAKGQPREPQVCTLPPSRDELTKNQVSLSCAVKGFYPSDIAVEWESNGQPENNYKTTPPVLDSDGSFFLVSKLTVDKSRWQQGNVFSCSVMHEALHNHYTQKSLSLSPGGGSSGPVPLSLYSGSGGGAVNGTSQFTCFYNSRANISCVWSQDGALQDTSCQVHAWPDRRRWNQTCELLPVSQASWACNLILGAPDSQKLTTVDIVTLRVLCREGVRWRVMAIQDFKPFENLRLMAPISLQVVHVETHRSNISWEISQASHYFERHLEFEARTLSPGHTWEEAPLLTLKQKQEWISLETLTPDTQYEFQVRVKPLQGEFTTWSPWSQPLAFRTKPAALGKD
Chain of TC47 (chain, as listed by the source, chain 1 of 3, other chains not shown): as the sequence (chain, as listed by the source, chain 1 of 3, other chains not shown) above
Chain of TC47 (chain, as listed by the source, chain 2 of 3, other chains not shown): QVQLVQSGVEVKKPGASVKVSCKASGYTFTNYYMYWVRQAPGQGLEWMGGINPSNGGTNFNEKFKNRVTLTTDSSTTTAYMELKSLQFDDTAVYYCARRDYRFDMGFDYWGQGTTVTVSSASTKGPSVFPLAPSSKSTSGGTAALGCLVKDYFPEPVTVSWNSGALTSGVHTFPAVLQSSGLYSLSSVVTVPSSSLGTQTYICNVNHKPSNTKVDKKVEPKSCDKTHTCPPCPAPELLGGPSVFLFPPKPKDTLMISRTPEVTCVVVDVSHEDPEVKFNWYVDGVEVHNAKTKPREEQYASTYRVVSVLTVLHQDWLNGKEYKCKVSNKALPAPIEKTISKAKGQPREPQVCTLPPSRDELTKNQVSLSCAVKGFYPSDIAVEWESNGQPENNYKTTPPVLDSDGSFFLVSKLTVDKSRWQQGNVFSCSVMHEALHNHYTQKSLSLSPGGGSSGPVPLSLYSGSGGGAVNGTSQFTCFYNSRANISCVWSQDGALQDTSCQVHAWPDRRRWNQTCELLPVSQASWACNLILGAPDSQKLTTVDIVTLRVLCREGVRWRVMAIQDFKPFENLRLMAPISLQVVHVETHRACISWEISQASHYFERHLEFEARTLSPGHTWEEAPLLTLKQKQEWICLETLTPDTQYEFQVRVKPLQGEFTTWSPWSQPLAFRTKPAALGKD
Chain of TC46 (chain, as listed by the source, chain 1 of 3, other chains not shown): as the sequence (chain, as listed by the source, chain 1 of 3, other chains not shown) above
Chain of TC46 (chain, as listed by the source, chain 2 of 3, other chains not shown): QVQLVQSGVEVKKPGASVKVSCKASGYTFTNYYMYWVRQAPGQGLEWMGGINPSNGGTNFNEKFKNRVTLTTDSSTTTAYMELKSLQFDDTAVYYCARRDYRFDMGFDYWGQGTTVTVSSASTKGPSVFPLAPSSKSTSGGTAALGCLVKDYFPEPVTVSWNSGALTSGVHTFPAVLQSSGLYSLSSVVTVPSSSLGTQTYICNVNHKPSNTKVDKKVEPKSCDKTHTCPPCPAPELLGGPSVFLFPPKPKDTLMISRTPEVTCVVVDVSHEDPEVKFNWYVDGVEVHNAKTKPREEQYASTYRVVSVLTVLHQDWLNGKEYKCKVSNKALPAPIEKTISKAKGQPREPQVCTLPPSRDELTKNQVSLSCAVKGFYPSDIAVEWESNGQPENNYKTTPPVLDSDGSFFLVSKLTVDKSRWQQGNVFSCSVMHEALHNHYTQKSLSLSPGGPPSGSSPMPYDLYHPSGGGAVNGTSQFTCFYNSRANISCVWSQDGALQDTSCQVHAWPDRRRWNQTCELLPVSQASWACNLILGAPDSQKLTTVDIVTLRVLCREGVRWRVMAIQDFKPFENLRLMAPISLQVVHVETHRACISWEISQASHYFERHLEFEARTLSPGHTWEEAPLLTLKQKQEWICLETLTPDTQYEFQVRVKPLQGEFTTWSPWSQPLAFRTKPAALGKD
Chain of TC3 (chain, as listed by the source, chain 1 of 3, other chains not shown): as the sequence (chain, as listed by the source, chain 1 of 3, other chains not shown) above
Chain of TC3 (chain, as listed by the source, chain 2 of 3, other chains not shown): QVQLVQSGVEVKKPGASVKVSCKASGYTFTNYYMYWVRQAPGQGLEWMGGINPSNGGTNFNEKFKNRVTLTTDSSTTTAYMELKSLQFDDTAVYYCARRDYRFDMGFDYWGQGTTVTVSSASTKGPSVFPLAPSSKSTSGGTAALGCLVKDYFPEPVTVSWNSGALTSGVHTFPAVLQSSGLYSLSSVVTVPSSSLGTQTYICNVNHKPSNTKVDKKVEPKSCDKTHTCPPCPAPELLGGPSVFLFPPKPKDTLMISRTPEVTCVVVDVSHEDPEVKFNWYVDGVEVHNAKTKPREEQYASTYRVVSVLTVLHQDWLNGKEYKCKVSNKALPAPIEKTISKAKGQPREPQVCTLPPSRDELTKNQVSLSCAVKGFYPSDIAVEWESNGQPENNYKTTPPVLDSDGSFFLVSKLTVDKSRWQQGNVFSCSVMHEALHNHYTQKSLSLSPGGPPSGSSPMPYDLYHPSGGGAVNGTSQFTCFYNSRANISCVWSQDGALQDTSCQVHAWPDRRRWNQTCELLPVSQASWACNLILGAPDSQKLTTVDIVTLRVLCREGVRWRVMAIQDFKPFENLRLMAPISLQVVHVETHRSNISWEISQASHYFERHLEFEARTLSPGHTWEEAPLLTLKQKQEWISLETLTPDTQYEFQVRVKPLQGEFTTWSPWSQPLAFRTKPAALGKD

Take MMP-10 protease: the cleavage efficiency result with TC27, in the data set with TC24, in the data set on TC26 and in the data set with TC21 was “cleavage efficiency of greater than 80%” throughout.

On to recombinant human MMP-9, for which the Est. kcat/KM was 42000 M⁻¹ s⁻¹ in the data set with TC24; 3500 M⁻¹ s⁻¹ in the data set with TC46; 3500 M⁻¹ s⁻¹ in the data set with TC3; 16000 M⁻¹ s⁻¹ and 15000 M⁻¹ s⁻¹ with TC68; 19000 M⁻¹ s⁻¹ and 18000 M⁻¹ s⁻¹ with TC53; 30000 M⁻¹ s⁻¹ and 29000 M⁻¹ s⁻¹ with TC73. Also, the Est. kcat/KM with TC57 was 13000 M⁻¹ s⁻¹ and 14000 M⁻¹ s⁻¹; in the data set on TC74, 850 M⁻¹ s⁻¹ and 860 M⁻¹ s⁻¹; with TC69 it was 35000 M⁻¹ s⁻¹ and 36000 M⁻¹ s⁻¹; with TC75, 25000 M⁻¹ s⁻¹ and 26000 M⁻¹ s⁻¹; in the data set on TC47 it was 38000 M⁻¹ s⁻¹; in the data set on TC71 it was 28000 M⁻¹ s⁻¹ and 30000 M⁻¹ s⁻¹. For the same substance, in the data set with TC70, the Est. kcat/KM is 390 M⁻¹ s⁻¹ and 370 M⁻¹ s⁻¹.
